This passage reports response results from article PMC4746669, “Attenuation of ligand-induced activation of angiotensin II type 1 receptor signaling by the type 2 receptor via protein kinase C” (Scientific Reports, 2016).

Sequences and labels used below:
B1: FLAG-AT2R-CFP (angiotensin II type 2 receptor) [human] / HA-AT1R-YFP (angiotensin II type 1 receptor) [human] (parent)
chain 1: MKGNSTLATTSKNITSGLHFGLVNISGNNESTLNCSQKPSDKHLDAIPILYYIIFVIGFLVNIVVVTLFCCQKGPKKVSSIYIFNLAVADLLLLATLPLWATYYSYRYDWLFGPVMCKVFGSFLTLNMFASIFFITCMSVDRYQSVIYPFLSQRRNPWQASYIVPLVWCMACLSSLPTFYFRDVRTIEYLGVNACIMAFPPEKYAQWSAGIALMKNILGFIIPLIFIATCYFGIRKHLLKTNSYGKNRITRDQVLKMAAAVVLAFIICWLPFHVLTFLDALAWMGVINSCEVIAVIDLALPFAILLGFTNSCVNPFLYCFVGNRFQQKLRSVFRVPITWLQGKRESMSCRKSSSLREMETFVS
chain 2: MILNSSTEDGIKRIQDDCPKAGRHNYIFVMIPTLYSIIFVVGIFGNSLVVIVIYFYMKLKTVASVFLLNLALADLCFLLTLPLWAVYTAMEYRWPFGNYLCKIASASVSFNLYASVFLLTCLSIDRYLAIVHPMKSRLRRTMLVAKVTCIIIWLLAGLASLPAIIHRNVFFIENTNITVCAFHYESQNSTLPIGLGLTKNILGFLFPFLIILTSYTLIWKALKKAYEIQKNKPRNDDIFKIIMAIVLFFFFSWIPHQIFTFLDVLIQLGIIRDCRIADIVDTAMPITICIAYFNNCLNPLFYGFLGKKFKRYFLQLLKYIPPKAKSHSNLSTKMSTLSYRPSDNVSSSTKKPAPCFEVE

The variants in the assay derive from B1. In words: FRET fluorescence microscopy in live HeLa cells (corrected FRET, FRETC). As to conditions: with HA-AT1R-YFP (angiotensin II type 1 receptor) [human]; value read at the end of the time course (about 50 min after AII stimulation at time 0); HeLa cells 24 h after transfection; n = 4; parent: 1.3; read off a ….
As to chain 1 MKGNSTLATTSKNITSGLHFGLVNISGNNESTLNCSQKPSDKHLDAIPILYYIIFVIGFLVNIVVVTLFCCQKGPKKVSSIYIFNLAVADLLLLATLPLWATYYSYRYDWLFGPVMCKVFGSFLTLNMFASIFFITCMSVDRYQSVIYPFLSQRRNPWQASYIVPLVWCMACLSSLPTFYFRDVRTIEYLGVNACIMAFPPEKYAQWSAGIALMKNILGFIIPLIFIATCYFGIRKHLLKTNSYGKNRITRDQVLKMAAAVVLAFIICWLPFHVLTFLDALAWMGVINSCEVIAVIDLALPFAILLGFTNSCVNPFLYCFVGNRFQQKLRSVFRVPITWLQGKRESMSCRKAAALREMETFVS [chain 1 S352A S353A S354A], the response is 0.97 -fold.
